Measurements taken from article PMC1890003.
pKd: −log10 of the molar value.

Molecular target: Δgpαf-BOF (recombinant nonglycosylated pro-α factor derivative labeled with BODIPY FL) (yeast)
Experiment: fluorescence polarisation; BOF anisotropy; Δgpαf-BOF (0.2 μM in buffer A: 50 mM HEPES pH 7.5, 40 mM KOAc, 5 mM MgCl2) titrated at 4°C with PDI or BiP; a separate sample for each concentration

pKd | Substance
6.05 | oxidized protein disulfide isomerase (from UniProt P07237 18-508) (enzyme)
7.52 | reduced protein disulfide isomerase (from UniProt P07237 18-508) (enzyme)
